We go through twelve substances from the supplement of paper PMC5998384.

The subject of the series is HeLa Kyoto. In words: thermal stability score vs G1/S (z-score of summed log2 fold changes over temperatures); higher = more thermally stable than in G1/S.
The mark [1] stands for this setting: cell cycle stage: early G1 (4.5 h after nocodazole release).
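Further: synchronized HeLa Kyoto cells, proteins quantified by TMT10plex mass spectrometry, three biological replicates, mitosis taken 0.5 h after nocodazole release, G1/S directly after double thymidine block.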

Chain of PDK1 (chain, as listed by the source): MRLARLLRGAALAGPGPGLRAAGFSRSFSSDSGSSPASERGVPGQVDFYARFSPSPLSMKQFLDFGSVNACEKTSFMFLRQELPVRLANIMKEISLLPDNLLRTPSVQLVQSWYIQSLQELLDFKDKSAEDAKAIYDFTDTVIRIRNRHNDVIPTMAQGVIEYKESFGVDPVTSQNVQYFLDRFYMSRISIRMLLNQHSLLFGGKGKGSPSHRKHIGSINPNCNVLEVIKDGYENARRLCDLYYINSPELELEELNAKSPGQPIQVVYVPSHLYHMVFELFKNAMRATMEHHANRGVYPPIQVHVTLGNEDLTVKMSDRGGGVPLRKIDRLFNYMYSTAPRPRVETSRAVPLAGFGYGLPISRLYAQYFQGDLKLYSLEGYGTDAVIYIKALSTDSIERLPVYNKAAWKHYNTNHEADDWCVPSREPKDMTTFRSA

Turning to “MSLVPATNYIYTPLNQLKGGTIVNVYGVVKFFKPPYLSKGTDYCSVVTIVDQTNVKLTCLLFSGNYEALPIIYKNGDIVRFHRLKIQVYKKETQGITSSGFASLTFEGTLGAPIIPRTSSKYFNFTTEDHKMVEALRVWASTHMSPSWTLLKLCDVQPMQYFDLTCQLLGKAEVDGASFLLKVWDGTRTPFPSWRVLIQDLVLEGDLSHIHRLQNLTIDILVYDNHVHVARSLKVGSFLRIYSLHTKLQSMNSENQTMLSLEFHLHGGTSYGRGIRVLPESNSDVDQLKKDLESANLTANQHSDVICQSEPDDSFPSSGSVSLYEVERCQQLSATILTDHQYLERTPLCAILKQKAPQQYRIRAKLRSYKPRRLFQSVKLHCPKCHLLQEVPHEGDLDIIFQDGATKTPDVKLQNTSLYDSKIWTTKNQKGRKVAVHFVKNNGILPLSNECLLLIEGGTLSEICKLSNKFNSVIPVRSGHEDLELLDLSAPFLIQGTIHHYGCKQCSSLRSIQNLNSLVDKTSWIPSSVAEALGIVPLQYVFVMTFTLDDGTGVLEAYLMDSDKFFQIPASEVLMDDDLQKSVDMIMDMFCPPGIKIDAYPWLECFIKSYNVTNGTDNQICYQIFDTTVAEDVI [POT1]”, the thermal stability score came to 0.878 under setting [1] and 1.25 (cell cycle stage: mitosis).
For “MGSNSSRIGDLPKNEYLKKLSGTESISENDPFWNQLLSFSFPAPTSSSELKLLEEATISVCRSLVENNPRTGNLGALIKVFLSRTKELKLSAECQNHIFIWQTHNALFIICCLLKVFICQMSEEELQLHFTYEEKSPGNYSSDSEDLLEELLCCLMQLITDIPLLDITYEISVEAISTMVVFLSCQLFHKEVLRQSISHKYLMRGPCLPYTSKLVKTLLYNFIRQEKPPPPGAHVFPQQSDGGGLLYGLASGVATGLWTVFTLGGVGSKAAASPELSSPLANQSLLLLLVLANLTDASDAPNPYRQAIMSFKNTQDSSPFPSSIPHAFQINFNSLYTALCEQQTSDQATLLLYTLLHQNSNIRTYMLARTDMENLVLPILEILYHVEERNSHHVYMALIILLILTEDDGFNRSIHEVILKNITWYSERVLTEISLGSLLILVVIRTIQYNMTRTRDKYLHTNCLAALANMSAQFRSLHQYAAQRIISLFSLLSKKHNKVLEQATQSLRGSLSSNDVPLPDYAQDLNVIEEVIRMMLEIINSCLTNSLHHNPNLVYALLYKRDLFEQFRTHPSFQDIMQNIDLVISFFSSRLLQAGAELSVERVLEIIKQGVVALPKDRLKKFPELKFKYVEEEQPEEFFIPYVWSLVYNSAVGLYWNPQDIQLFTMDSD [DYM]” the same measures were 0.139 and 0.823.
Taken in the same sequence, the figures for “MASAVFEGTSLVNMFVRGCWVNGIRRLIVSRRGDEEEFFEIRTEWSDRSVLYLHRSLADLGRLWQRLRDAFPEDRSELAQGPLRQGLVAIKEAHDIETRLNEVEKLLKTIISMPCKYSRSEVVLTFFERSPLDQVLKNDNVHKIQPSFQSPVKISEIMRSNGFCLANTETIVIDHSIPNGRDQQLGVDPTEHLFENGSEFPSELEDGDDPAAYVTNLSYYHLVPFETDIWD [PXDC1]” were -0.022 and 0.549.
As for “MLIKEYHILLPMSLDEYQVAQLYMIQKKSREESSGEGSGVEILANRPYTDGPGGSGQYTHKVYHVGSHIPGWFRALLPKAALQVEEESWNAYPYTRTRYTCPFVEKFSIEIETYYLPDGGQQPNVFNLSGAERRQRILDTIDIVRDAVAPGEYKAEEDPRLYHSVKTGRGPLSDDWARTAAQTGPLMCAYKLCKVEFRYWGMQAKIEQFIHDVGLRRVMLRAHRQAWCWQDEWTELSMADIRALEEETARMLAQRMAKCNTGSEGSEAQPPGKPSTEARSAASNTGTPDGPEAPPGPDASPDASFGKQWSSSSRSSYSSQHGGAVSPQSLSEWRMQNIARDSENSSEEEFFDAHEGFSDSEEVFPKEMTKWNSNDFIDAFASPVEAEGTPEPGAEAAKGIEDGAQAPRDSEGLDGAGELGAEACAVHALFLILHSGNILDSGPGDANSKQADVQTLSSAFEAVTRIHFPEALGHVALRLVPCPPICAAAYALVSNLSPYSHDGDSLSRSQDHIPLAALPLLATSSSRYQGAVATVIARTNQAYSAFLRSPEGAGFCGQVALIGDGVGGILGFDALCHSANAGTGSRGSSRRGSMNNELLSPEFGPVRDPLADGVEGLGRGSPEPSALPPQRIPSDMASPEPEGSQNSLQAAPATTSSWEPRRASTAFCPPAASSEAPDGPSSTARLDFKVSGFFLFGSPLGLVLALRKTVMPALEAAQMRPACEQIYNLFHAADPCASRLEPLLAPKFQAIAPLTVPRYQKFPLGDGSSLLLADTLQTHSSLFLEELEMLVPSTPTSTSGAFWKGSELATDPPAQPAAPSTTSEVVKILERWWGTKRIDYSLYCPEALTAFPTVTLPHLFHASYWESADVVAFILRQVIEKERPQLAECEEPSIYSPAFPREKWQRKRTQVKIRNVTSNHRASDTVVCEGRPQVLSGRFMYGPLDVVTLTGEKVDVYIMTQPLSGKWIHFGTEVTNSSGRLTFPVPPERALGIGVYPVRMVVRGDHTYAECCLTVVARGTEAVVFSIDGSFTASVSIMGSDPKVRAGAVDVVRHWQDSGYLIVYVTGRPDMQKHRVVAWLSQHNFPHGVVSFCDGLTHDPLRQKAMFLQSLVQEVELNIVAGYGSPKDVAVYAALGLSPSQTYIVGRAVRKLQAQCQFLSDGYVAHLGQLEAGSHSHASSGPPRAALGKSSYGVAAPVDFLRKQSQLLRSRGPSQAEREGPGTPPTTLARGKARSISLKLDSEE [PITPNM1]”, the thermal stability score runs as follows: under setting [1], 0.586; (cell cycle stage: mitosis) 0.463.
For “MDPETRGQEIIKVTPLQQMLASCTGAILTSVIVTPLDVVKIRLQAQNNPLPKGKCFVYSNGLMDHLCVCEEGGNKLWYKKPGNFQGTLDAFFKIIRNEGIKSLWSGLPPTLVMAVPATVIYFTCYDQLSALLRSKLGENETCIPIVAGIVARFGAVTVISPLELIRTKMQSKKFSYVELHRFVSKKVSEDGWISLWRGWAPTVLRDVPFSAMYWYNYEILKKWLCEKSGLYEPTFMINFTSGALSGSFAAVATLPFDVVKTQKQTQLWTYESHKISMPLHMSTWIIMKNIVAKNGFSGLFSGLIPRLIKIAPACAIMISTYEFGKAFFQKQNVRRQQY [SLC25A40]” the same measures were -1.32 and -2.29.
Regarding “MSSGNAKIGHPAPNFKATAVMPDGQFKDISLSDYKGKYVVFFFYPLDFTFVCPTEIIAFSDRAEEFKKLNCQVIGASVDSHFCHLAWVNTPKKQGGLGPMNIPLVSDPKRTIAQDYGVLKADEGISFRGLFIIDDKGILRQITVNDLPVGRSVDETLRLVQAFQFTDKHGEVCPAGWKPGSDTIKPDVQKSKEYFSKQK [PRDX1]”, the thermal stability score under setting [1] is -0.285 and the thermal stability score (cell cycle stage: mitosis) was -1.31.
As for “MSGFENLNTDFYQTSYSIDDQSQQSYDYGGSGGPYSKQYAGYDYSQQGRFVPPDMMQPQQPYTGQIYQPTQAYTPASPQPFYGNNFEDEPPLLEELGINFDHIWQKTLTVLHPLKVADGSIMNETDLAGPMVFCLAFGATLLLAGKIQFGYVYGISAIGCLGMFCLLNLMSMTGVSFGCVASVLGYCLLPMILLSSFAVIFSLQGMVGIILTAGIIGWCSFSASKIFISALAMEGQQLLVAYPCALLYGVFALISVF [YIPF5]”, the thermal stability score reads like this: under setting [1], -0.124; (cell cycle stage: mitosis) -0.361.
For “MHTLVFLSTRQVLQCQPAACQALPLLPRELFPLLFKVAFMDKKTVVLRELVHTWPFPLLSFQQLLQECAHCSRALLQERPSTESMQAVILGLTARLHTSEPGASTQPLCRKHALRVLDMTGLLDDGVEQDPGTMSMWDCTAAVARTCIAQQQGGAAEPGPAPIPVEVRVDLRVNRASYAFLREALRSSVGSPLRLCCRDLRAEDLPMRNTVALLQLLDAGCLRRVDLRFNNLGLRGLSVIIPHVARFQHLASLRLHYVHGDSRQPSVDGEDNFRYFLAQMGRFTCLRELSMGSSLLSGRLDQLLSTLQSPLESLELAFCALLPEDLRFLARSPHAAHLKKLDLSGNDLSGSQLAPFQGLLQASAATLLHLELTECQLADTQLLATLPILTQCASLRYLGLYGNPLSMAGLKELLRDSVAQAELRTVVHPFPVDCYEGLPWPPPASVLLEASINEEKFARVEAELHQLLLASGRAHVLWTTDIYGRLAADYFSL [LRRC14]” the same measures were -0.753 and -0.00668.
For PDK1 the same measures were -0.202 and 0.796.
For “MEPGEVKDRILENISLSVKKLQSYFAACEDEIPAIRNHDKVLQRLCEHLDHALLYGLQDLSSGYWVLVVHFTRREAIKQIEVLQHVATNLGRSRAWLYLALNENSLESYLRLFQENLGLLHKYYVKNALVCSHDHLTLFLTLVSGLEFIRFELDLDAPYLDLAPYMPDYYKPQYLLDFEDRLPSSVHGSDSLSLNSFNSVTSTNLEWDDSAIAPSSEDYDFGDVFPAVPSVPSTDWEDGDLTDTVSGPRSTASDLTSSKASTRSPTQRQNPFNEEPAETVSSSDTTPVHTTSQEKEEAQALDPPDACTELEVIRVTKKKKIGKKKKSRSDEEASPLHPACSQKKCAKQGDGDSRNGSPSLGRDSPDTMLASPQEEGEGPSSTTESSERSEPGLLIPEMKDTSMERLGQPLSKVIDQLNGQLDPSTWCSRAEPPDQSFRTGSPGDAPERPPLCDFSEGLSAPMDFYRFTVESPSTVTSGGGHHDPAGLGQPLHVPSSPEAAGQEEEGGGGEGQTPRPLEDTTREAQELEAQLSLVREGPVSEPEPGTQEVLCQLKRDQPSPCLSSAEDSGVDEGQGSPSEMVHSSEFRVDNNHLLLLMIHVFRENEEQLFKMIRMSTGHMEGNLQLLYVLLTDCYVYLLRKGATEKPYLVEEAVSYNELDYVSVGLDQQTVKLVCTNRRKQFLLDTADVALAEFFLASLKSAMIKGCREPPYPSILTDATMEKLALAKFVAQESKCEASAVTVRFYGLVHWEDPTDESLGPTPCHCSPPEGTITKEGMLHYKAGTSYLGKEHWKTCFVVLSNGILYQYPDRTDVIPLLSVNMGGEQCGGCRRANTTDRPHAFQVILSDRPCLELSAESEAEMAEWMQHLCQAVSKGVIPQGVAPSPCIPCCLVLTDDRLFTCHEDCQTSFFRSLGTAKLGDISAVSTEPGKEYCVLEFSQDSQQLLPPWVIYLSCTSELDRLLSALNSGWKTIYQVDLPHTAIQEASNKKKFEDALSLIHSAWQRSDSLCRGRASRDPWC [PLEKHM2]” the same measures were -1.92 and -1.58.
In the case of “MAPLRPLLILALLAWVALADQESCKGRCTEGFNVDKKCQCDELCSYYQSCCTDYTAECKPQVTRGDVFTMPEDEYTVYDDGEEKNNATVHEQVGGPSLTSDLQAQSKGNPEQTPVLKPEEEAPAPEVGASKPEGIDSRPETLHPGRPQPPAEEELCSGKPFDAFTDLKNGSLFAFRGQYCYELDEKAVRPGYPKLIRDVWGIEGPIDAAFTRINCQGKTYLFKGSQYWRFEDGVLDPDYPRNISDGFDGIPDNVDAALALPAHSYSGRERVYFFKGKQYWEYQFQHQPSQEECEGSSLSAVFEHFAMMQRDSWEDIFELLFWGRTSAGTRQPQFISRDWHGVPGQVDAAMAGRIYISGMAPRPSLAKKQRFRHRNRKGYRSQRGHSRGRNQNSRRPSRATWLSLFSSEESNLGANNYDDYRMDWLVPATCEPIQSVFFFSGDKYYRVNLRTRRVDTVDPPYPRSIAQYWLGCPAPGHL [VTN]”, the thermal stability score is 2.31 under setting [1] and -1.24 (cell cycle stage: mitosis).
Taken in the same sequence, the figures for “MSSSLRPGPSRWRRAASIVLAAGWSRPETATPPSRPPPAEGFRLLLLQRSPHQGFMPGAHVFSGGVLDAADRSADWLGLFAPHHGPPRFGLGPAPFSRTAFPSLPDTDDHKTDNTGTLPEDVAFRICAVREAFEEAGVLLLRPRTSPPGPAPGPGLALEPPPGLASWRDRVRQDPRHFLRLCAHLDCTPDIWALHNWSAWLTPFLRGTTRRFDTAFFLCCLREPPPVYPDLAEVVGYQWSSPSEATESFLSKEIWLPPPQFYEVRRLANFASLSDLHKFCLGRALEGLERWLPIILLTADGMVHLLPGDELYLEDSDFLENLMSTEKKTEEIMKEGKQFHRIVTYHRHLYDIHVTVQPKYKHVYPKNSVVRKSHL [NUDT19]” were -1.25 and -1.33.
